Experimental data published in patent US20220411498A1 (JACOBIO PHARMACEUTICALS, published 2022).

T1: huCD39 on the cell surface (293T/17-huCD39 cells) (human, UniProt P49961 1-510)
T1 sequence (looked up): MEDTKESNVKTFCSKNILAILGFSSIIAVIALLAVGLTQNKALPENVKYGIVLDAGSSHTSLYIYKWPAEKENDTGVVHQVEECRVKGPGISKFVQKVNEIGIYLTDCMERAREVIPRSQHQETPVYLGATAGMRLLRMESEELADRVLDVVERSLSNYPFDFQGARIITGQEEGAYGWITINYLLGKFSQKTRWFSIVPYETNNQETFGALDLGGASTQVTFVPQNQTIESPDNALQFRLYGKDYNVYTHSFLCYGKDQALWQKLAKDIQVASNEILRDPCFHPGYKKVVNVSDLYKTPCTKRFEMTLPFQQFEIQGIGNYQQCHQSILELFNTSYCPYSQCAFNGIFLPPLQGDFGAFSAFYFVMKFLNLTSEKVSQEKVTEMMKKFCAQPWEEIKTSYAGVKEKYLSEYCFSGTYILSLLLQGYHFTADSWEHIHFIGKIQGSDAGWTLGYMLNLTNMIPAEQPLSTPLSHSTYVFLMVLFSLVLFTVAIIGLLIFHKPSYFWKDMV

T2: huCD39 recombinant protein (human, UniProt P49961 38-478)
T2 construct: the entry is the extracellular domain and ends in a histidine tag; also called soluble huCD39 protein; human CD39 extracellular domain recombinant protein
T2 sequence: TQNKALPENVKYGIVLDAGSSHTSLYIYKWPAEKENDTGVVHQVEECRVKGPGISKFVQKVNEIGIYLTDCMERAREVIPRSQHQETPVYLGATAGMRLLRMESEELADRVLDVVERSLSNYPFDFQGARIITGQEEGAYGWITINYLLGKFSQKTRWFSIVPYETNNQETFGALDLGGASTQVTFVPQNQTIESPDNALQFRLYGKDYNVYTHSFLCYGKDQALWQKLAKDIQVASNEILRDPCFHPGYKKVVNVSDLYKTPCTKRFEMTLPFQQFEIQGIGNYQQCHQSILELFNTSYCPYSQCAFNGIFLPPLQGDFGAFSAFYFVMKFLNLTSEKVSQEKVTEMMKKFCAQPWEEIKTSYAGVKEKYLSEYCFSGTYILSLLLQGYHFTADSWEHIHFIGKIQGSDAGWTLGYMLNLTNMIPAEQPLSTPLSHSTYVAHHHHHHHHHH


What was measured:
[1] = target: T1, huCD39 on the cell surface …; experiment: cell-based or functional assay
[2] = target: T1, huCD39 on the cell surface …; experiment: flow cytometry on 293T/17-huCD39 cells
Protocol: Flow cytometry assay: recombinant host cell line 293T/17-huCD39 cells expressing huCD39 were used to evaluate the binding ability of the humanized antibody to the natural CD39 protein on the cell surface. The recombinant cells were resuspended in PBS buffer, 2×10⁶ cells were added to a 96-well U-plate, and a certain gradient dilution range of the humanized antibody was incubated for 1h at 4° C. in a refrigerator or on ice. The mixture was centrifuged at 1500 rpm for 3 min at 4° C., and washed three times with PBS buffer. Then, incubated for 30 min at 4° C. in the refrigerator or on ice with diluted Alexa Fluor 488-labeled goat anti-human polyclonal antibody (pAb): Goat anti-Human IgG (H+L) Cross-Adsorbed Secondary Antibody, Alexa Fluor 488 (thermo), and finally the cells were washed three times with PBS as described above and analyzed in MACSQuant flow cytometry. Data plots were generated and affinity data were counted using GraphPad Prism software (FIG. 5). The results are shown in Table 5, and the EC₅₀ values of 293T/17-huCD39 humanized antibody were all at the level of 10⁻⁹M.

[3] = target: T1, huCD39 on the cell surface …; experiment: cell-based or functional assay; remark: listed apart in the source
[4] = target: T2, huCD39 recombinant protein; experiment: indirect ELISA, huCD39 recombinant protein coated at 1 ug/mL
Protocol: The next day, washed 5 times with PBS buffer and blocked with 200 μL/well of 2% skim milk powder for 1 h. A certain dose range of CD39 humanized antibody was added, and incubated for 1 h at room temperature. Then, washed 5 times with PBST washing buffer (PBS, 0.05% Tween 20), 100 μL HRP-labeled secondary antibody was added to each well, and incubated for 30 min at room temperature. The plates were washed 5 times again, and TMB (Life Technologies) was added for color development for 5 to 10 min. Finally, 1N HCl was added to terminate the reaction, and the OD value was measured at 450 nm. GraphPad Prism software was used to generate data plots and count the affinity data (FIG. 4). The EC₅₀ values of the binding activity of the three humanized antibodies were all at the level of 10⁻¹⁰ M.

| EC50 of reversal of ATP-mediated proliferation inhibition of human CD4+ T cells (CFSE, flow cytometry) [1] [nM] | EC50 of reversal of ATP-mediated proliferation inhibition of human CD8+ T cells (CFSE, flow cytometry) [1] [nM] | Bottom [2] | EC50 [2] [nM] | Top [2] | Blocking of ATPase activity on cell surface (293T/17-huCD39, CellTiter Glo): Bottom [3] | Blocking of ATPase activity on cell surface (293T/17-huCD39, CellTiter Glo): EC50 [3] [nM] | Blocking of ATPase activity on cell surface (293T/17-huCD39, CellTiter Glo): Top [3] | Bottom [4] [OD450] | EC50 [4] [nM] | Top [4] [OD450] | Binder |
| --- | --- | --- | --- | --- | --- | --- | --- | --- | --- | --- | --- |
| 25.5 | 60.4 | -2.15 | 2.94 | 329 | 31300 | 0.026 | 152000 | 0.068 | 0.514 | 1.18 | M201 HuH1L1(D-E) G2C (antibody, human IgG2, kappa, V domains shown, Humanized antibody, expressed in 293F cells) VH: EVQLVESGGGLVQPGGSLRLSCAASGFTFSDYGMHWVRQAPGKGLEWVSYISSGSSIMYYADTVKGRFTISRDNAKNSLYLQMNSLRAEDTAVYYCARDLYYDHVLDYWGQGTLLTVSS VL: DIQMTQSPSSLSASVGDRVTITCRASQEIRGYLIWLQQKPGGAIKRLIYAASTLESGVPSRFSGSRSGTDFTLTISSLQPEDFATYYCLQYTSYPRTFGGGTKVEIKR |
| 0.646 | 1.35 | 8.18 | 3.1 | 266 | 38800 | 0.077 | 250000 | 0.085 | 0.709 | 0.991 | h201H3.1+h219L1.1 G2C (antibody, human IgG2, kappa, V domains shown, Humanized antibody, expressed in 293F cells) VH: QVQLVESGGGVVQPGRSLRLSCAASGFTFSDYGMHWVRQAPGKGLEWVAYISSGSSIMYYADTVKGRFTISRDNSKNTLYLQMNSLRAEDTAVYYCARDLYYDHVLDYWGQGTTVTVSS VL: DIQMTQSPSSLSASVGDRVTITCRASQEVSGYLNWLQQKPGKAIKRLIYAASTLESGVPSRFSGSRSGSDYTLTISSLQPEDFATYYCLQYASYPRTFGQGTKVEIKR |
